Experimental findings from patent US20140045930A1 (published 2014) are described below.

The experiment concerns the target E. coli ribosomal protein L16 (endogenous) (E. coli, UniProt A7ZSK2 1-136). The experiment can be described thus: co-immunoprecipitation with anti-GFP (GFP-nanotrap), SDS-PAGE, identification by LC-MS/MS.

B1: GFP-YcfD (N-terminally GFP-tagged YcfD) (other)
chain: MEYQLTLNWPDFLERHWQKRPVVLKRGFNNFIDPISPDELAGLAMESEVDSRLVSHQDGKWQVSHGPFESYDHLGETNWSLLVQAVNHWHEPTAALMRPFRELPDWRIDDLMISFSVPGGGVGPHLDQYDVFIIQGTGRRRWRVGEKLQMKQHCPHPDLLQVDPFEAIIDEELEPGDILYIPPGFPHEGYALENAMNYSVGFRAPNTRELISGFADYVLQRELGGNYYSDPDVPPRAHPADVLPQEMDKLREMMLELINQPEHFKQWFGEFISQSRHELDIAPPEPPYQPDEIYDALKQGEVLVRLGGLRVLRIGDDVYANGEKIDSPHRPALDALASNIALTAENFGDALEDPSFLAMLAALVNSGYWFFEG
notes: also called green fluorescent protein (GFP)-tagged YcfD
Take B1: the binding result is “binds”.
